How the values were obtained:
Assay in all cases: co-IP with agarose-bound AvFc from A549 whole-cell lysate, mass spectrometry
[1] = molecular target: Scavenger receptor class B member 1 (human) (UniProt Q8WTV0)
[2] = molecular target: Erlin-1 (human) (UniProt O75477)
[3] = molecular target: Tetratricopeptide repeat protein 13 (human) (UniProt Q8NBP0)
[4] = molecular target: Mucin-5B (human) (UniProt Q9HC84)
[5] = molecular target: Cation-independent mannose-6-phosphate receptor (human) (UniProt P11717)
Chain of UniProt P11717 (P11717 41-2491 limits assumed): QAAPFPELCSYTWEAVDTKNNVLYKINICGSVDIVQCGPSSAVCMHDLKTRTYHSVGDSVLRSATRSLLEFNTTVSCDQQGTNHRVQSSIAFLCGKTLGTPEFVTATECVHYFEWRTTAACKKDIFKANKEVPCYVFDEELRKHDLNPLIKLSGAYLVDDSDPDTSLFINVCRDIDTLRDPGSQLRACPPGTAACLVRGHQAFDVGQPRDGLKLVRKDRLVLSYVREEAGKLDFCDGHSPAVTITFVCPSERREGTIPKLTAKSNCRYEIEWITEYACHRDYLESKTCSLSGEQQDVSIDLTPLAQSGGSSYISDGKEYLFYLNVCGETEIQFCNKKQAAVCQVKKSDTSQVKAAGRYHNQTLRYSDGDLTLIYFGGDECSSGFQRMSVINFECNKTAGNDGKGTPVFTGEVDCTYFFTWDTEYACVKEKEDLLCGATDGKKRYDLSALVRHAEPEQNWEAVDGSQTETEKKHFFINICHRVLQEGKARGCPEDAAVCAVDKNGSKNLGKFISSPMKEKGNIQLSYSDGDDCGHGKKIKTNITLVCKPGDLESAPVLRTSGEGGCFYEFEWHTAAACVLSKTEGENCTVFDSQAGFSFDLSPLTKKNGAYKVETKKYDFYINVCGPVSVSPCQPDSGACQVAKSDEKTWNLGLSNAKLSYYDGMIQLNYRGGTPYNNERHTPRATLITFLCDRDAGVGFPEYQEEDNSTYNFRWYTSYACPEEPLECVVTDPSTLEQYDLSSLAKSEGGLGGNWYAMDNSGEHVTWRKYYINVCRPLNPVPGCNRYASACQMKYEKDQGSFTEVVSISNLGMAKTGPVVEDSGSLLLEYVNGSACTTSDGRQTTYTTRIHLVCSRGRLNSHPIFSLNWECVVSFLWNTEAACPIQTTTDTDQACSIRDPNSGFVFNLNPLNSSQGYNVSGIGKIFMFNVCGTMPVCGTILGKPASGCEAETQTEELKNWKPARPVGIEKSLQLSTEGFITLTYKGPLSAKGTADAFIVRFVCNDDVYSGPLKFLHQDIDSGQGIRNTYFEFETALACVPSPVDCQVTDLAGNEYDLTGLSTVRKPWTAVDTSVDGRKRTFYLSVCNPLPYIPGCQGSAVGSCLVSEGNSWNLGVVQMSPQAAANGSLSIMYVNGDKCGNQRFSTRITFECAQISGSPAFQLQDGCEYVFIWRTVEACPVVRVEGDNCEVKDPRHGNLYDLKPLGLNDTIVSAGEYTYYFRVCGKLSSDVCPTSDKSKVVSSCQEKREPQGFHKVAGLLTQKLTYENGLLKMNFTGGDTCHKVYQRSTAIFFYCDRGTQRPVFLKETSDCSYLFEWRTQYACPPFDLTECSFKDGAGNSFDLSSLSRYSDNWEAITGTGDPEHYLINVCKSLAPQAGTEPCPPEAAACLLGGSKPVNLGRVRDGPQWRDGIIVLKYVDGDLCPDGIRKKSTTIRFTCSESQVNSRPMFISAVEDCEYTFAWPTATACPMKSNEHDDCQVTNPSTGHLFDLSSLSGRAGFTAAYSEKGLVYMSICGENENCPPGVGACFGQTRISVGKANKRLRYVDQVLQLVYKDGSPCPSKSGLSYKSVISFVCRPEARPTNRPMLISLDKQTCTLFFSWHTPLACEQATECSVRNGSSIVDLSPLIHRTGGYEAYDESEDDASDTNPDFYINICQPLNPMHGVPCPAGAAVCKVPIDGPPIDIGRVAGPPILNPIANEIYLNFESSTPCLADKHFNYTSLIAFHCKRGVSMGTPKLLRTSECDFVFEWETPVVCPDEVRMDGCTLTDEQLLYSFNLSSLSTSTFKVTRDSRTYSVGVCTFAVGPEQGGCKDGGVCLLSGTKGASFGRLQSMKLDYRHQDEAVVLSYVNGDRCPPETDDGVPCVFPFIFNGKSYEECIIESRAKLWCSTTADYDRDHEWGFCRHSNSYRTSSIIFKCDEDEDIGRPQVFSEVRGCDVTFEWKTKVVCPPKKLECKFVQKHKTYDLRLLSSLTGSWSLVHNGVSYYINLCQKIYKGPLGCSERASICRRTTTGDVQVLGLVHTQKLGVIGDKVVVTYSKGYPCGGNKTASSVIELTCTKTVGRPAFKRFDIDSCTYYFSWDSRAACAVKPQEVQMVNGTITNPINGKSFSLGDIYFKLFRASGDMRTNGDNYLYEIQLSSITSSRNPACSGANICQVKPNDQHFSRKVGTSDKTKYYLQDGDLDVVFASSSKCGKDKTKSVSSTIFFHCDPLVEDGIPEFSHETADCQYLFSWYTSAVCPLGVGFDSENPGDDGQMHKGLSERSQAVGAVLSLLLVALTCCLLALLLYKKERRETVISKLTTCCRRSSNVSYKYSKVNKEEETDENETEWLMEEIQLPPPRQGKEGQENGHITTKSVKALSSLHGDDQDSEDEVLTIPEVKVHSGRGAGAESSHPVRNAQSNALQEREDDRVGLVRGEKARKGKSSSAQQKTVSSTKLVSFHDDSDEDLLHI

[6] = molecular target: Solute carrier family 2, facilitated glucose transporter member 1 (human) (UniProt P11166)
[7] = molecular target: Laminin subunit gamma-1 (human) (UniProt P11047)
[8] = molecular target: Tetratricopeptide repeat protein 17 (human) (UniProt Q96AE7)
[9] = molecular target: Transmembrane protein 2 (human) (UniProt Q9UHN6)
[10] = molecular target: Plexin-B2 (human) (UniProt O15031)
[11] = molecular target: Integrin alpha-1 (human) (UniProt P56199)
[12] = molecular target: Integrin alpha-2 (human) (UniProt P17301)
[13] = molecular target: Disintegrin and metalloproteinase domain-containing protein 17 (human) (UniProt P78536)
[14] = molecular target: Integrin alpha-5 (human) (UniProt P08648)
[15] = molecular target: Attractin (human) (UniProt O75882)
[16] = molecular target: Neutral amino acid transporter B (0) (human) (UniProt Q15758)
Chain of UniProt Q15758 (Q15758 whole entry): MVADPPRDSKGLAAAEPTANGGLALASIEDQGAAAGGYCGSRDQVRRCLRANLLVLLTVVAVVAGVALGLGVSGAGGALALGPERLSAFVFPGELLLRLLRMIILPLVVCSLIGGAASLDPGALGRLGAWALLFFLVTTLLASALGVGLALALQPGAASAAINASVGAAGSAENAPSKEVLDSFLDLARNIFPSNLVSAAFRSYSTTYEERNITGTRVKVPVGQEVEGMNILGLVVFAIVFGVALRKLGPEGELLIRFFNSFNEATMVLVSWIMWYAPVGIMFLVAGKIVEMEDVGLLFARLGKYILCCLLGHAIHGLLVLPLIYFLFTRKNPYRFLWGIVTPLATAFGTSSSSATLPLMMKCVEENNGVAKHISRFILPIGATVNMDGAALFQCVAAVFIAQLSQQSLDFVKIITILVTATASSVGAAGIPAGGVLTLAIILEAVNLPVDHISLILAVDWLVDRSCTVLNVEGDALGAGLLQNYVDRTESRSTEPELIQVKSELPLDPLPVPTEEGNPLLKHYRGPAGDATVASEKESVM

[17] = molecular target: Laminin subunit beta-1 (human) (UniProt P07942)
[18] = molecular target: CD109 antigen (human) (UniProt Q6YHK3)
[19] = molecular target: T-complex protein 1 subunit theta (human) (UniProt P50990)
[20] = molecular target: Tropomyosin alpha-3 chain (human) (UniProt P06753)
[21] = molecular target: Transferrin receptor protein 1 (human) (UniProt P02786)
[22] = molecular target: Exportin-1 (human) (UniProt O14980)
[23] = molecular target: Cell cycle control protein 50A (human) (UniProt Q9NV96)
Chain of UniProt Q9NV96 (Q9NV96 2-361 limits assumed): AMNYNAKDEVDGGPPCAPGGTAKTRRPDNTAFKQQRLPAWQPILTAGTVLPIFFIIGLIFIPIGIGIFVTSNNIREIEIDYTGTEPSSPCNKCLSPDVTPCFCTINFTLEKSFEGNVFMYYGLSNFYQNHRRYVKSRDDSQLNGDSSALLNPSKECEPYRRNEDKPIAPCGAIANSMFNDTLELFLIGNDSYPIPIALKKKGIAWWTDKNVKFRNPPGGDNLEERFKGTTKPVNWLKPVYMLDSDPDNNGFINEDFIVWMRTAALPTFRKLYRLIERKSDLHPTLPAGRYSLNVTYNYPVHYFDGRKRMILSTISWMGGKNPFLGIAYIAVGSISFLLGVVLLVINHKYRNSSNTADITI

[24] = molecular target: Cation-dependent mannose-6-phosphate receptor (human) (UniProt P20645)
[25] = molecular target: Polycystin-2 (human) (UniProt Q13563)
[26] = molecular target: Galectin-3-binding protein (human) (UniProt Q08380)
Chain of UniProt Q08380 (Q08380 19-585 limits assumed): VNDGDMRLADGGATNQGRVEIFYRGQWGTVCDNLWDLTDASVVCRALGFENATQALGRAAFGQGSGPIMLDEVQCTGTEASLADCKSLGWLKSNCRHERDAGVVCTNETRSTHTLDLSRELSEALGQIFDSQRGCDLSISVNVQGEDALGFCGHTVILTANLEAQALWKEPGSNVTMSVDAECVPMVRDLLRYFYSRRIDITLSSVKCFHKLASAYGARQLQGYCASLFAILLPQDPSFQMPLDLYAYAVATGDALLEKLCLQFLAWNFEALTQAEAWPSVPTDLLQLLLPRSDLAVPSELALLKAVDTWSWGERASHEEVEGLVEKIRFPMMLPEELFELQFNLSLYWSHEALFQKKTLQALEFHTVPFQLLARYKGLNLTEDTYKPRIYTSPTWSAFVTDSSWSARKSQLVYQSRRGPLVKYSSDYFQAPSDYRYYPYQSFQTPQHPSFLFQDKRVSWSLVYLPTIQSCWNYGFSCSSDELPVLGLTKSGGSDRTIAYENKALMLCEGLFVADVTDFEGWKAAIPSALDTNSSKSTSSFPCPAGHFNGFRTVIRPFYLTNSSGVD

[27] = molecular target: Spectrin beta chain, non-erythrocytic 1 (human) (UniProt Q01082)
[28] = molecular target: Agrin (human) (UniProt O00468)
[29] = molecular target: Transmembrane and TPR repeat-containing protein 3 (human) (UniProt Q6ZXV5)
[30] = molecular target: Prolow-density lipoprotein receptor-related protein 1 (human) (UniProt Q07954)
[31] = molecular target: Contactin-associated protein-like 3 (human) (UniProt Q9BZ76)
[32] = molecular target: Erlin-2 (human) (UniProt O94905)
[33] = molecular target: Mucin-5AC (human) (UniProt P98088)
[34] = molecular target: Disintegrin and metalloproteinase domain-containing protein 9 (human) (UniProt Q13443)
[35] = molecular target: Endothelial protein C receptor (human) (UniProt Q9UNN8)
[36] = molecular target: Metal transporter CNNM4 (human) (UniProt Q6P4Q7)
[37] = molecular target: Magnesium transporter protein 1 (human) (UniProt Q9H0U3)
[38] = molecular target: Laminin subunit alpha-5 (human) (UniProt O15230)
[39] = molecular target: Solute carrier family 12 member 7 (human) (UniProt Q9Y666)
Chain of UniProt Q9Y666 (Q9Y666 whole entry): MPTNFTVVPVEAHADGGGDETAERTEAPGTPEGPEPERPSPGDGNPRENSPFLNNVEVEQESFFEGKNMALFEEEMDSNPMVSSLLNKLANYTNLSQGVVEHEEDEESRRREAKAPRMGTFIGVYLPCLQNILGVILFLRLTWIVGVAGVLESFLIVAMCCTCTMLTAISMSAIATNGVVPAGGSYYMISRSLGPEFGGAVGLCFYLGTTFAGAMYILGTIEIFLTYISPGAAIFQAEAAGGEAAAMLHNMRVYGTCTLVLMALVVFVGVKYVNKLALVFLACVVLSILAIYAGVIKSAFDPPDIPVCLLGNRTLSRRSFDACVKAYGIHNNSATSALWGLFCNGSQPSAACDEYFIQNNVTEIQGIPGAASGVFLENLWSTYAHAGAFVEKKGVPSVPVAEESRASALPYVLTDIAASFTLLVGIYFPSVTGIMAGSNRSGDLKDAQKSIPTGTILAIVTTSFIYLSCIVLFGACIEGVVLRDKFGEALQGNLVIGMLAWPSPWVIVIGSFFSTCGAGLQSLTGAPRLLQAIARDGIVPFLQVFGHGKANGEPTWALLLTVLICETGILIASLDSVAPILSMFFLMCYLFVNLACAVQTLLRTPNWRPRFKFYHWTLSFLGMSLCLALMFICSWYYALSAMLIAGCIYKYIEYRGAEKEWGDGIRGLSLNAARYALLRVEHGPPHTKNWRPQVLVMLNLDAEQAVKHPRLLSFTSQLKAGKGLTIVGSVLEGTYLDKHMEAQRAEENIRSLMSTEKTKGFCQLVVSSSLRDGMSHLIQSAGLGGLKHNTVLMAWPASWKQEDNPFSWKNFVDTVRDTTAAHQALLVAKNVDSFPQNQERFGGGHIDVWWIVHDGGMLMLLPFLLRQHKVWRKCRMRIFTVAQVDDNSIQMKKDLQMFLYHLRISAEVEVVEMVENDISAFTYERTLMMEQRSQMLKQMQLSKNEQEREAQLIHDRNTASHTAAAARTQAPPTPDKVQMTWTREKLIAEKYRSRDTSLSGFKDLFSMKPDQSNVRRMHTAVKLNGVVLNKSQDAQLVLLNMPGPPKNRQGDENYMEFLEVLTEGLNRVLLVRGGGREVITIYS

Avaren-Fc (AvFc) (Fc fusion)
Percentage of Total Spectra (%) [1]: 0.056%
Percentage of Total Spectra (%) [2]: 0.11%
Percentage of Total Spectra (%) [3]: 0.13%
Percentage of Total Spectra (%) [4]: 0.14%
Percentage of Total Spectra (%) [5]: 0.2%
Percentage of Total Spectra (%) [6]: 0.007%
Percentage of Total Spectra (%) [7]: 0.36%
Percentage of Total Spectra (%) [8]: 0.13%
Percentage of Total Spectra (%) [9]: 0.11%
Percentage of Total Spectra (%) [10]: 0.12%
Percentage of Total Spectra (%) [11]: 0.021%
Percentage of Total Spectra (%) [12]: 0.11%
Percentage of Total Spectra (%) [13]: 0.056%
Percentage of Total Spectra (%) [14]: 0.035%
Percentage of Total Spectra (%) [15]: 0.084%
Percentage of Total Spectra (%) [16]: 0.014%
Percentage of Total Spectra (%) [17]: 0.41%
Percentage of Total Spectra (%) [18]: 0.13%
Percentage of Total Spectra (%) [19]: 0.091%
Percentage of Total Spectra (%) [20]: 0.07%
Percentage of Total Spectra (%) [21]: 0.16%
Percentage of Total Spectra (%) [22]: 0.056%
Percentage of Total Spectra (%) [23]: 0.021%
Percentage of Total Spectra (%) [24]: 0.028%
Percentage of Total Spectra (%) [25]: 0.17%
Percentage of Total Spectra (%) [26]: 0.07%
Percentage of Total Spectra (%) [27]: 0.11%
Percentage of Total Spectra (%) [28]: 0.21%
Percentage of Total Spectra (%) [29]: 0.11%
Percentage of Total Spectra (%) [30]: 0.056%
Percentage of Total Spectra (%) [31]: 0.11%
Percentage of Total Spectra (%) [32]: 0.15%
Percentage of Total Spectra (%) [33]: 0.21%
Percentage of Total Spectra (%) [34]: 0.11%
Percentage of Total Spectra (%) [35]: 0.014%
Percentage of Total Spectra (%) [36]: 0.091%
Percentage of Total Spectra (%) [37]: 0.021%
Percentage of Total Spectra (%) [38]: 0.34%
Percentage of Total Spectra (%) [39]: 0.021%
